The results in this text go back to patent US20240174741A1 (IMMUNOME, published 2024).

Assay [1] has as its target T1, IL-1α (human, UniProt P01583 1-271, limits assumed).
T1 sequence (looked up): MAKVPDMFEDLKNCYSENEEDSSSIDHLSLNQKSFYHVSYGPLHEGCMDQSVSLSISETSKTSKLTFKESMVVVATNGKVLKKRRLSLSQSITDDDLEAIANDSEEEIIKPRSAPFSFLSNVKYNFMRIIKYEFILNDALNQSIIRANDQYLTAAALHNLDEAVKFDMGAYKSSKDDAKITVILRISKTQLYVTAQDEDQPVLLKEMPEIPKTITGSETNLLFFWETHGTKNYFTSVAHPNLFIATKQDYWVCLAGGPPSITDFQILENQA
The experiment in a line: CDI HuProt native protein microarray, IL-1 family members. How it is done:
(§1) To confirm specificity to IL-38, several lead candidate antibodies (CD1-M3, CD1-M8, NZB-M8) were analyzed in a High-Spec Cross-reactivity Assay using native HuProt arrays (CDI Laboratories). […] of antibody was incubated overnight in a cold room, washed, and probed with anti-human secondary antibodies. Fluorescence intensity (F635) as an indicator of binding was measured for each spot. CDI software quantified the specificity of the antibody to each spot based on a Z-score. Z-score is defined as [F635−(Average F635 on array)]/(Standard deviation of F635 on array). S-score is defined as the difference between the Z-score of a given protein and the Z-score of the next highest protein.

The target of assay [2] is IL-1β (human, UniProt P01584 1-269, limits assumed). The description is as above. As to the method:
as §1

In assay [3] the target is T2, IL-18 (human, UniProt Q14116 1-193, limits assumed).
T2 sequence (looked up): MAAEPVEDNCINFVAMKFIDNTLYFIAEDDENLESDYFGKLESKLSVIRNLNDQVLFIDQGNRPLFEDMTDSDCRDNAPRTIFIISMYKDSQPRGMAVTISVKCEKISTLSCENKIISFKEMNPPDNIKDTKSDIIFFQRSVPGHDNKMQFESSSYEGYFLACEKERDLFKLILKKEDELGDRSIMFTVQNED
The assay is described as above. As to the method: as §1

Assay [4] addresses T3, human interleukin-38 (IL-38) (human, UniProt Q8WWZ1 1-152).
T3 construct: The Adipogen protein is called full length; also called IL1F10/IL38; IL1F10
T3 sequence (looked up): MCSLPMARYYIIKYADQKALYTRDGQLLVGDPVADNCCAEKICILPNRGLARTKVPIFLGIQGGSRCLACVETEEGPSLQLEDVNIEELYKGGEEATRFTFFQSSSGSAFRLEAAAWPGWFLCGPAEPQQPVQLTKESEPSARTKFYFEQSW
The description is as above. As to the method:
as §1

Assay [5] concerns the target T4, IL-36b (human, UniProt Q9NZH7 1-164, limits assumed).
T4 sequence (looked up): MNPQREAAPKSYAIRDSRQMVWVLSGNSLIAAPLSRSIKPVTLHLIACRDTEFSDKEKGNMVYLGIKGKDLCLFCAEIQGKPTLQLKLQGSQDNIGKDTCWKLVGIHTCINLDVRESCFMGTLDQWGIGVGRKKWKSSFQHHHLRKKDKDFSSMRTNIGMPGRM
The description is as above. How it is done:
as §1

In assay [6] the target is T5, IL-33 (human, UniProt O95760 1-270, limits assumed).
T5 sequence (looked up): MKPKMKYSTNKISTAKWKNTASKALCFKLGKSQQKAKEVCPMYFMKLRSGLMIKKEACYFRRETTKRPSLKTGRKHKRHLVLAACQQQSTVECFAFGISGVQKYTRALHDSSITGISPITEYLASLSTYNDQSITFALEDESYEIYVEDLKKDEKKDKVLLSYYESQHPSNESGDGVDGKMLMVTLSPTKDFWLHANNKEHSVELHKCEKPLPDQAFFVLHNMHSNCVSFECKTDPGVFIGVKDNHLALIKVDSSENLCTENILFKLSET
The assay is described as above. How it is done: as §1

Assay [7] has as its target T6, IL-36a (human, UniProt Q9UHA7 1-158, limits assumed).
T6 sequence (looked up): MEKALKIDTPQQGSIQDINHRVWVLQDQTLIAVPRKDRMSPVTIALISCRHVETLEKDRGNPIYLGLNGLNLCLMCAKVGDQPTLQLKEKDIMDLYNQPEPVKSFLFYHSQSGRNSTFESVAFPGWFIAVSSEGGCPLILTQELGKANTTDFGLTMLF
The assay is described as above. As to the method:
as §1

The target of assay [8] is T3, human interleukin-38 (IL-38). The experiment in a line: BLI (Octet QKe), antibody on anti-mouse Fc biosensors, soluble IL-38, 1:1 model. As to the method: Antibody was loaded to AMC probes, blocked in the kinetics buffer for 1 min (baseline) and dipped into an appropriate IL-38 solution. IL-38 association to antibodies of interest was measured for 180 seconds at 28° C. Biosensors were subsequently dipped into kinetics buffer-containing wells and the protein dissociation was measured for 600 s. KD, Kon and Kdis values were identified using the 1:1 built-in model of the ForteBio's Data Analysis 9 software.

In assay [9] the target is T7, Hnrnph1.
T7 construct: The lower-case gene symbol may mean a mouse clone
T7 sequence (P31943 1-449, species assumed, looked up): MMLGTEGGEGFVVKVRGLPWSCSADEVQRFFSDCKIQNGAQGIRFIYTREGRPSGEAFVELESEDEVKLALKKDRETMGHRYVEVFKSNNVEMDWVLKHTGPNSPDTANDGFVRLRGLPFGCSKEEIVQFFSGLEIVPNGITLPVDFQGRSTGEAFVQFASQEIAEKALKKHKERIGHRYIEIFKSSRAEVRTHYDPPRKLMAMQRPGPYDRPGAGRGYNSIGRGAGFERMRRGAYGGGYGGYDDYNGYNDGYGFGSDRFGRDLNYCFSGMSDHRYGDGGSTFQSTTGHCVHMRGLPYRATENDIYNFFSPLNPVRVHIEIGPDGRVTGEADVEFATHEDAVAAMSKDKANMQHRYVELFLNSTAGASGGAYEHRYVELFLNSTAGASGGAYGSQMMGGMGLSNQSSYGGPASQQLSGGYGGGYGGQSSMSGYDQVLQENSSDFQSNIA
The experiment in a line: CDI HuProt native protein microarray (High-Spec cross-reactivity assay). How it is done:
as §1

B1: CD1-M3 (antibody, V domains shown)
VH: EVQLQQSGPELVKPGASVKIPCKASGYTFTDYNMDWVKQSHGKSLEWIGDINPNNGGTIYNQKFKGKATLTVDKSSSTAYMELRSLTSEDTAVYYCSRPYYGYFAYWGQGTLVTVSA
VL: DVVMTQSPLSLPVSLGDQASISCRSSQSLVHSHENTFLHWYLQKPGQSPKLLIYRVSNRFSGVPDRFSGSGSGTDFTLKISRVEAEDLGVYFCSQSTHVPLTFGAGTKLELK
notes: Mouse monoclonal from a hybridoma of a CD-1 mouse immunized with full length recombinant IL-38
In the case of B1, the Z-score in assay [1] is -0.013; in assay [2] it was -0.016; in [3], -0.016; in assay [4], 140; in [5], -0.016; in assay [6] it was -0.02. Moreover, the Z-score in [7] is -0.008; in assay [9], 10.6. Besides, the dissociation constant (Kd) in [8] was 721 pM. The molecule further registered an F635 in assay [9] of 4130. Further, the S-Score in [9] turned out to be 5.
